This is an account of results in paper PMC7904728, “ITSN1 regulates SAM68 solubility through SH3 domain interactions with SAM68 proline-rich motifs”.

For the data set, the target named is ITSN1 SH3D-His (UniProt Q15811-2 1063-1150). Put plainly: NMR; 300 uM SH3D, 1:1.2 molar ratio; shift perturbations in eight residues; EMSA: 20 mM Tris-HCl pH 7.4, 50 mM KCl, 1 mM Mg, room temperature, 5 min, 0.7% agarose 0.5x TBE; NMR: 298 K, protein dialyzed in 12 mM potassium. The note with it: protein: recombinant; tags: His (pET22b); single strand.
Chain of ITSN1 SH3D-His (Q15811 1063-1150): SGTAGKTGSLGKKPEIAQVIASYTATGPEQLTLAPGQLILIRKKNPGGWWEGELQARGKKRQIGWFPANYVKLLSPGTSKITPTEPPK

CACACACACACA (ssDNA) [CA6]: the binding result is reported as “binds”.

Consider TTTTTTTTTTTT (ssDNA) [T12], for which the binding result is recorded as “binds”.
